Data published in patent US20120082667A1 (IMMUNAS PHARMA, published 2012).
Residue numbers refer to the chain shown, from its start.

B1: AL-205 antibody (antibody, IgG2a, V domains shown)
VH: EVKLEESGGGLVQPGGSMKLSCVASGFTFSNYWMNWVRQSPEKGLEWVAEIRLKSNNYATHYAESVKGRFTISRDDSKSSVYLQMNNLRAEDTGIYYCTRGTRVWLRREAWFAYWGQGTLVTVSA
VL: not shown
B2: AL-224 antibody (antibody, IgG2a, V domains shown)
VH: DVQLVESGGGLVQPGGSRKLSCAASGFTFSSFGMHWVRQAPEKGLEWVAYISSGSSTIYYADTVKGRFTISRDNPKNTLFLQMTSLRSEDTAMYYCARYGNYAMDYWGQGTSVTVSS
VL: DVLMTQTPLSLPVSLGDQASISCRSSQSIVHSNGNTYLEWYLQKPGQSPKLLIYKVSNRFSGVPDRFSGSGSGTDFTLKIGRVEAEDLGVYYCFQGSHVPPTFGGGTELEIK
B3: AL-217 antibody (antibody, IgG1, V domains shown)
VH: QVTLKESGPGILQPSQTLSLTCSFSGFSLSTSGMGVSWIRQPSGKGLEWLAHIYWDDDKRYNPSLKSRLTISKDTSSNQVFLKITSVDTADTATYYCARRGPSYYRYRDYFDYWGQGTTLTVSS
VL: B2 VL with G81S, P101L, G105A, E108K, I111L
B4: AL-225 antibody (antibody, IgG2a, V domains shown)
VH: QVTLKESGPGILKPSQTLSLTCSFSGFSLSTSGMGVGWIRQPSGKGLEWLAHIWWDDDKYYNPSLKSQLTISKDTSRNQVFLKITSVDTADTATYYCARRGLIRQDYFDYWGQGTTLTVSS
VL: B2 VL with G81S, P101L, G105A, E108K, I111L
B5: AL-202 antibody (antibody, IgG2a, V domains shown)
VH: EVQLVESGGDLVKPGGSLKLSCAASGFTFSSYGMSWVRQTPDKRLEWVATISSGGSYTYYPDSVKGRFTISRDNAKNTLYLQMSSLKSEDTAMYYCARPLYYRHGVFAYWGQGTLVTVSA
VL: DVQITQSPSYLAASPGETITINCRASKSISKYLAWYQEKPGKTNKLLIYSGSTLQSGIPSRFSGSGSGTDFTLTISSLEPEDFAMYYCQQHNEYPWTFGGGTKLEIK
B6: AL-233 antibody (antibody, IgG2b, V domains shown)
VH: DVQLQESGPDLVKPSQSLSLTCTVTGYSITSGYSWHWIRQFPGNKLEWMGYIHYSGSTNYNPSLKSRISITRDTSKNQFFLQLNSVTTEDTATYYCARRGYDGYYSWFAYWGQGTLVTVSA
VL: SQAVVTQESALTTSPGETVTLTCRSSTGAVTTSNYANWVQEKPDHLFTGLIGGTNNRAPGVPARFSGSLIGDKAALTITGAQTEDEAIYFCALWYSNHWVFGGGTKLTVLG
B7: AL-209 antibody (antibody, IgG2a, V domains shown)
VH: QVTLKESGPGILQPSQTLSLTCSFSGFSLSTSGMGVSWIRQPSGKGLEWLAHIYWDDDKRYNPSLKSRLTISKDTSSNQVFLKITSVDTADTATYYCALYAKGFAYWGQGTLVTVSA
VL: DIQMTQSPSSLSASLGGKVTITCKASQDINKYIAWYQHKPGKGPRLLIHYTSTLQPGIPSRFSGSGSGRDYSFSISNLEPEDIATYYCLQYDNLYTFGGGTKLEIK
B8: AL-211 antibody (antibody, IgG2b, V domains shown)
VH: QVTLKESGPGILKPSQTLSLTCSFSGFSLSTSGMGVGWIRQPSGKGLEWLAHIWWDDDKYYNPSLKSQLTISKDTSRNQVFLKITSVDTADTATYYCARRSLSRDYFDYWGQGTTLTVSS
VL: DVVMTQTPLSLPVSLGDQASISCRSSQSLVHSNGNTYLHWYLQKPGQSPKLLIYKVSNRFSGVPDRFSGSGSGTDFTLKISRVEAEDLGVYFCSQSTHVPLTFGAGTKLELK
B9: AL-227 antibody (antibody, IgG2a, V domains shown)
VH: not shown
VL: B8 VL
B10: AL-222 antibody (antibody, IgG2b, V domains shown)
VH: QVTLKESGPGILKPSQTLSLTCSFSGFSLSTAGMGVGWIRQPSGKGLEWLAHIWWDDDKYYNPSLKSQLTISKDTSRNQVFLKITSVDTADTATYYCARRGLYYGNYDAMDYWGQGTSVTVSS
VL: B2 VL with N58T, G81S, H98R, P101L, G105A, E108K, I111L
B11: AL-228 antibody (antibody, IgG2a, V domains shown)
VH: QVTLKESGPGILKPSQTLSLTCSFSGFSLSTSGMGVGWIRQPSGKGLEWLAHIWWDDDKYYNPSLKSRLTISKDTSRNQVFLKITSVDTADTATYYCTRRALLRLQGDYFDYWGQGTTLTVSS
VL: B2 VL with G81S, P101L, G105A, E108K, I111L
B12: AL-216 antibody (antibody, IgG2b, V domains shown)
VH: QVQLQQPGAELVKPGASVKLSCKASGYTFTSYWMHWVKQRPGQGLEWIGEINPSNGRTNYNEKFKSKATLTVDKSSSTAYMQLSSLTSEDSAVYYCAREHYYGYGAYWGQGTLVTVSA
VL: B2 VL with G81S, P101L, G105A, E108K, I111L
B13: AL-213 antibody (antibody, IgG2b, V domains shown)
VH: QVQLKQSGPGLVQPSQSLSITCTVSGFSLTSYGVHWVRQSPGKGLEWLGVIWRGGSTDYNAAFMSRLSITKDNSKSQVFFKMNSLQADDTAIYYCANNRYERGGYYAMDYWGQGTSVTVSS
VL: B2 VL with Q43H, G81S, P101L, G105A, E108K, I111L
B14: AL-212 antibody (antibody, IgG2b, V domains shown)
VH: QVTLKESGPGILKPSQTLSLTCSFSGFSLSTSGMGVGWIRQPSGKGLEWLAHIWWDDDKYYNPSLKSQLTISKDTSRNQVFLKITSVDTADTATYYCAPSTMITTFAYWGQGTLVTVSA
VL: B8 VL
B15: AL-226 antibody (antibody, IgG2b, V domains shown)
VH: not shown
VL: B8 VL
B16: AL-223 antibody (antibody, IgG2a, V domains shown)
VH: QVTLKESGPGILKPSQTLSLTCSFSGFSLSTSGMGVGWIRQPSGKGLEWLAHIWWDDDKYYNPSLKSQLTISKDTSRNQVFLKITSVDTADTATYYCARRALITTRDYFDYWGQGTTLTVSS
VL: B2 VL with G81S, P101L, G105A, E108K, I111L
B17: AL-220 antibody (antibody, IgG2b, V domains shown)
VH: B12 VH
VL: B2 VL with G81S, P101Y, E108K
B18: AL-231 antibody (antibody, IgG2a, V domains shown)
VH: B8 VH with S101A, S103N, R104W, Y106V
VL: B2 VL with G81S, P101L, G105A, E108K, I111L
B19: AL-214 antibody (antibody, IgG2b, V domains shown)
VH: B13 VH
VL: B2 VL with G81S, P101L, G105A, E108K, I111L
B20: AL-206 antibody (antibody, IgG2b, V domains shown)
VH: DVQLQESGPGLVKPSQSLSLACTVTGYSITSDYAWNWIRQFPGNKLEWLGYISYSGTTRYNPSLKSRISITRDTSKNQFFLQLNSVTTEDTATYYCAIYGSSYYWYFDVWGAGTTVTVSS
VL: QIVLTQSPAIMSASLGERVTMTCTASSSVSSSYLHWYQQKPGSSPKLWIYSTSNLASGVPARFSGSGSGTSYSLTISSMEAEDAATYYCHQYHRSPPTFGAGTKLELK
B21: AL-208 antibody (antibody, IgG2b, V domains shown)
VH: QVQLQQPGAELVKPGASVKLSCKASGYTFTSYWMHWVKQRPGQGLEWIGEINPSNGRTNYNEKFKSKATLTVDKSSSTAYMQLSSLTSEDSAVYYCARQGYRHGVFAYWGQGTLVTVSA
VL: B20 VL
B22: AL-207 antibody (antibody, IgG2b, V domains shown)
VH: B10 VH with A32S, K59E, S76T, G101A, L102I, Y103H, G105Y, N106G
VL: B20 VL

Target: T1, synthesized A beta1-42 (UniProt P05067 672-713)
T1 construct: domain: A beta1-42; spotted in the dot blot as the second of the two types of oligomers; also called A beta42 oligomer
Test: dot blot, synthesized A beta1-42 spotted, hybridoma supernatant
Method: (§1) Dot blot analysis was carried out for hybridomas that gave positive result for primary screening. […] The membrane was blocked with Tris Buffer containing 5% low-fat milk and 0.05% Tween-20, and reacted with hybridoma culture supernatants and detected with chemiluminescence kit (ECL) after reacting with HRP-conjugated anti-mouse IgG antibody.

Q: Does B1 bind?
A: binds

Target: T2, A beta oligomer prepared from synthetic A beta1-40 (HCl form), 0.1 mg/ml in PBS, incubated at 37 degrees C … (UniProt P05067 672-711)
T2 construct: domain: A beta1-40; non-fibrous assembly of A beta1-40; also called A beta1-40 oligomer; A beta40 oligomer
Test: SPR, Biacore 3000, A beta1-40 oligomer on CM5 chip, antibody as analyte at five concentrations
Method: The analysis was carried out by Surface Plasmon Resonance (SPR) using Biacore 3000 (GE Healthcare Sciences).

Q: For B2, which Kd is on record?
A: 544 nM

Q: What about the koff of the same binder?
A: 0.155 s⁻¹

Q: And the kon?
A: 285000 M⁻¹ s⁻¹

Q: Which results are given for B3?
A: Kd: 6.44 nM; koff: 0.00123 s⁻¹; kon: 191000 M⁻¹ s⁻¹

Q: B4 was tested. Which Kd did it give?
A: 126 nM

Q: And the koff?
A: 0.0192 s⁻¹

Q: And the kon?
A: 152000 M⁻¹ s⁻¹

Target: T1, synthesized A beta1-42
Test: dot blot: peptide spotted on nitrocellulose (0.1 micro g/dot), hybridoma culture supernatant, HRP anti-mouse IgG, ECL
Method: as §1

Q: Does B5 bind?
A: binds

Q: Does B6 bind?
A: binds

Q: Does B7 bind?
A: binds

Q: Does B8 bind?
A: binds

Q: Does B9 bind?
A: binds

Q: Does B10 bind?
A: binds

Q: Does B11 bind?
A: binds

Q: Does B12 bind?
A: binds

Q: Does B13 bind?
A: binds

Q: Does B14 bind?
A: binds

Q: Does B15 bind?
A: binds

Q: Does B16 bind?
A: binds

Q: Does B17 bind?
A: binds

Q: Does B18 bind?
A: binds

Q: Does B19 bind?
A: binds

Q: Does B20 bind?
A: binds

Q: Does B21 bind?
A: binds

Q: Does B22 bind?
A: binds

Target: T3, A beta monomer prepared from synthetic A beta1-40 (TFA form), 0.1 mg/ml in PBS (UniProt P05067 672-711)
T3 construct: domain: A beta1-40; also called A beta1-40 monomer; A beta40 monomer
Test: competitive ELISA: antibody pre-incubated with soluble A beta1-40 monomer (inhibitor, varied), then binding to immobilised A beta1-40 oligomer read as OD450

Q: Does B7 bind?
A: binds

Q: Does B10 bind?
A: binds

Q: Does B16 bind?
A: binds

Target: T3, A beta monomer prepared from synthetic …
Test: as above
Remark: another data set of the same source

Q: Does B6 bind?
A: binds

Q: Does B18 bind?
A: binds

Target: T2, A beta oligomer prepared from synthetic …
Test: competitive ELISA: antibody pre-incubated with soluble A beta1-40 oligomer (inhibitor, varied), then binding to immobilised A beta1-40 oligomer read as OD450

Q: Does B7 bind?
A: binds

Q: Does B10 bind?
A: binds

Q: Does B16 bind?
A: binds

Target: T2, A beta oligomer prepared from synthetic …
Test: as above
Remark: another data set of the same source

Q: Does B6 bind?
A: binds

Q: Does B18 bind?
A: binds
